{
  "source": "patent US20020132974A1",
  "about": "“BETA SHEET FORMING PEPTIDES AND GELS MADE THEREOF” (priority 1995, published 2002)",
  "key": {"[1]": {"test": "response of peptide gels to chemical switches (pH, salt, surfactant, solvent)", "type": "physicochemical", "excerpt": "As mentioned, the gels of the invention are susceptible to chemical triggers which result in changes in the properties of the gels so that they switch from, for example, a first fluid state to a gel state or vica versa.\nAddition of salt causes the network to contract and phase separate as a more concentrated gel phase. Changing the polarity of the solvent, ie making it more polar (water) or non-polar ( chloroform), preserves the β-sheet structure, but the gel network is destabilised and precipitation of the peptide occurs. In strong hydrogen-bonding donor solvents (like hexafluoroisopropanol), the peptide adopts an α-helical conformation (FIG. 3b) and there is no gelation. Solvents containing arornatic groups cause destabilisation of β-tapes by 20-30% and disruption of the gels. This is believed to be due to competition between intermolecular peptide aromatic side-chain interactions and the aromatic groups of the solvent Acetylation at the N-terminus and amination at the C-temiinus of the 27-residue peptide results in a preference for the a-helical conformation and gels are not formed. It seems that favourable interactions between β-nanotapes and solvent are important for gel stabilisation. By appropriate peptide design, peptides can be produced which will form nanotapes and gels in a variety of solvents, including water. For example, peptides derived from the Drosophila Toll receptor protein, from the Alzheimer amyloid peptide and from desmin filaments and from the β-domain of the leu lysozyme (SER-1). Chemical switches also include changes in pH, for example, the hydrophilic peptide AcNH-Gln-Ala-Thr-Asn-Arg-Asn-Thr-AspGly-Ser-Thr-AspTyr-Gly-Ile-Leu-Gin-Ile-Asn-Ser-Arg-CONH2 (SER-1) forms a gel at neutral and acidic pH, whilst it switches to a neutonial fluid at pH higher than 11."}, "[2]": {"test": "gel and β-tape formation of peptides in solvents", "type": "physicochemical", "excerpt": "Compatibility of the β-sheet surface and the solvent are also essential for gelation as opposed to peptide precipitation out of solution. For example, K24 forms β-tapes with both polar and apolar groups on their surfaces. Thus, they can form gels in solvents with intermediate polarity, corresponding to values of relative dielectric constants, εγ=εr=24-62.\nIn organic solvents such as ethanol, methanol and 2-chloroethanol we have discovered that the aforementioned peptide sequences self-assemble to provide elongated tapes approximately 8 nm wide and a single molecule in thickness."}},
  "data": [
    {"substance": "NH2-Lys-Leu-Glu-Ala-Leu-Tyr-Ile-Leu-Met-Val-Leu-Cly-Phe-Phe-Gly-Phe-Phe-Thr-Leu-Gly-Ie-Met-Leu-Ser-Tyr-Ile-Arg-CO2H [K27]", "values": [
      {"measurement": "effect of added 1,1,1,3,3,3-hexafluoropropanol-2 on the gel", "setting": "[1]; addition of 50% v 1,1,1,3,3,3-hexafluoropropanol-2", "value": "destroys the gel"},
      {"measurement": "effect of added water on the gel", "setting": "[1]; addition of 50% v water", "value": "destroys the gel"},
      {"measurement": "effect of sodium dodecylsulfate (SDS) on the gel", "setting": "[1]; molar ratio 1 K27-350 SDS", "value": "destroys the gel"}
    ]},
    {"substance": "NH2-Lys-Leu-Glu-Ala-Leu-Tyr-Val-Leu-Gly-Phe-Phe-Gly-Phe-Phe-Thr-Leu-Gly-Be-Met-Leu-Ser-Tyr-Rle-Arg-CO2H [K24]", "values": [
      {"measurement": "gel formation in solvents of higher or lower polarity", "setting": "[2]; polarity above or below dielectric constant 24-62, β-sheet structures poorly soluble, precipitate", "value": "gel is not formed"},
      {"measurement": "relative dielectric constant of solvents in which gels are formed", "setting": "[2]; solvents or solvent mixtures of intermediate polarity", "value": "24-62"},
      {"measurement": "effect of lithium chloride on the gel", "setting": "[1]; molar ratio 1 peptide-7 lithium chloride", "value": "contracts"},
      {"measurement": "drop of the fraction of β-sheet structure", "setting": "[1]; solvents containing aromatic groups", "value": "20-30%"}
    ]}
  ]
}
